Results published in PMC2330239 (Nucleic Acids Research, 2008).

T1: NCoA-1 PAS-B domain fragment 257–385 (human, UniProt Q15788 257-385)
T1 sequence: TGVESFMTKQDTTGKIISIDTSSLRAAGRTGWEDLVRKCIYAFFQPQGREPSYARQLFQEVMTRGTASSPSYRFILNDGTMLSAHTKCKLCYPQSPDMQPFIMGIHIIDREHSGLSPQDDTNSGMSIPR

T2: GST fusion protein of the NCoA-1 PAS-B domain, hNCoA-1 (260–370) (human, UniProt Q15788 260-370)
T2 sequence: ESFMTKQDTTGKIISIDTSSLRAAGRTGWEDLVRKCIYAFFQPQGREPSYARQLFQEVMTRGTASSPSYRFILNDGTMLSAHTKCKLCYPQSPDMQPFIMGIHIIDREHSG


Assays:
[1] = target: T1, NCoA-1 PAS-B domain fragment 257–385; test: NMR titration
[2] = target: T2, GST fusion protein of the NCoA-1 PAS-B …; test: pull-down

| Binder | binding result [1] | binding result [2] |
| --- | --- | --- |
| EDQCISSQLDELLCPPTTVEG [peptide representing LXXLL motif 4 of human NCoA-1] | binds | binds |
| EGRNDEKALLEQLVSFLSGKD [peptide representing LXXLL motif 5 of human NCoA-1] | binds | binds |
| LLPPTEQDLTKLLLEGQGESG [human STAT6 motif peptide, STAT6 (794–814)] | binds | binds |
